Laboratory results taken from PMC12808100, “The non-catalytic DNA polymerase ε subunit is an NPF motif recognition protein” (Nature Communications, 2025).

What was measured:
[1] = target: His6-avi-MBP-tagged POLE2; experiment: Single-point nHU-MS with recombinant His6-avi-MBP-POLE2 bait, Jurkat extract; format: binding, human; conditions: significant apparent affinity of endogenous prey protein for POLE2 bait; single-point nHU-MS; Figure S11
Excerpt: So far, our study only focused on a few hand-picked NPF motifs and studied them as short synthetic peptides. However, many other proteins may be present in the proteome that could bind to POLE2 and their putative NPF motifs are embedded in their natural structures that can greatly affect their binding properties. To investigate interactions between POLE2 and intact, full length proteins proteome-wide, we used nHU-MS experiments with recombinant His6-avi-MBP-tagged POLE2 as bait and purified His6-avi-MBP as a control. Even though we are aware that this recombinant POLE2 may bind to NPF motifs with a somewhat altered affinity, we assumed that this would affect all NPF motif-mediated interactions equally, allowing an unbiased affinity ranking of all identified partners. Single point nHU measurements were performed at 26 μM POLE2 concentration and the recovered supernatant was measured by label free proteomic MS measurements (Fig. 3A, Supplementary Figs. 8A, 9, Supplementary Data 1).
Single-point nHU experiments with protein baits were carried out nearly identically with two key modifications. First, the resin saturation step was carried out by mixing 50 μl streptavidin resin with 0.5−1 ml 50 μM biotinylated protein solution and the mixture was incubated for 1.5 h at 4 °C with constant agitation. Second, instead of using estimated bait concentrations, we measured it experimentally. An extra aliquot of resin stock was prepared alongside the nHU samples that were identically processed that were used to eluate the immobilized proteins under harsh conditions, in order to experimentally quantify the Cbait by using densitometry of Coomassie stained SDS-PAGE that included a protein calibration series. For this, 50 μl bait-saturated resin aliquots were mixed with 200 μl 4x Laemmli Sample Buffer (120 mM Tris-HCl pH 7, 8% SDS, 100 mM DTT, 32% glycerol, 0.004% bromphenol blue, 1% β-mercaptoethanol), instead of cell extract. After 15 min incubation at 95 °C, these samples were analyzed by SDS-PAGE using protein calibration standard, made from recombinant MBP. Densitometry was carried out after Coomassie staining on raw Tif images by using Fiji ImageJ 1.53c and experimental bait concentration were determined by adjusting for molecular weight differences between MBP and MBP-POLE2 constructs.
Samples were digested overnight at 37 °C.

POLE2 WT = experiment: Proximity labeling MS, MAC3-tagged POLE2 WT in Flp-In T-REx 293 cells; format: cell-based, human; conditions: bait POLE2_WT
POLE2 E520A = experiment: Proximity labeling MS, POLE2 E520A; conditions: bait POLE2_E520A
POLE2 Y311F = experiment: Proximity labeling MS, POLE2 Y311F; conditions: bait POLE2_Y311F
POLE2 S522A = experiment: Proximity labeling MS, POLE2 S522A; conditions: bait POLE2_S522A

B1: URM1 (protein, UniProt Q9BTM9 1-101, looked up)
Ubiquitin-related modifier 1: MAAPLSVEVEFGGGAELLFDGIKKHRVTLPGQEEPWDIRNLLIWIKKNLLKERPELFIQGDSVRPGILVLINDADWELLGELDYQLQDQDSVLFISTLHGG
pKapp_sign [1]: 4.219

B2: ATAD3A (protein, UniProt Q9NVI7 2-586, looked up)
ATPase family AAA …: SWLFGINKGPKGEGAGPPPPLPPAQPGAEGGGDRGLGDRPAPKDKWSNFDPTGLERAAKAARELEHSRYAKDALNLAQMQEQTLQLEQQSKLKEYEAAVEQLKSEQIRAQAEERRKTLSEETRQHQARAQYQDKLARQRYEDQLKQQQLLNEENLRKQEESVQKQEAMRRATVEREMELRHKNEMLRVEAEARARAKAERENADIIREQIRLKAAEHRQTVLESIRTAGTLFGEGFRAFVTDWDKVTATVAGLTLLAVGVYSAKNATLVAGRFIEARLGKPSLVRETSRITVLEALRHPIQVSRRLLSRPQDALEGVVLSPSLEARVRDIAIATRNTKKNRSLYRNILMYGPPGTGKTLFAKKLALHSGMDYAIMTGGDVAPMGREGVTAMHKLFDWANTSRRGLLLFVDEADAFLRKRATEKISEDLRATLNAFLYRTGQHSNKFMLVLASNQPEQFDWAINDRINEMVHFDLPGQEERERLVRMYFDKYVLKPATEGKQRLKLAQFDYGRKCSEVARLTEGMSGREIAQLAVSWQATAYASEDGVLTEAMMDTRVQDAVQQHQQKMCWLKAEGPGRGDEPSPS
pKapp_sign [1]: 4.126

B3: SEC14L4 (protein, UniProt Q9UDX3 1-406, looked up)
SEC14-like protein 4: MSSRVGDLSPQQQEALARFRENLQDLLPILPNADDYFLLRWLRARNFDLQKSEDMLRRHMEFRKQQDLDNIVTWQPPEVIQLYDSGGLCGYDYEGCPVYFNIIGSLDPKGLLLSASKQDMIRKRIKVCELLLHECELQTQKLGRKIEMALMVFDMEGLSLKHLWKPAVEVYQQFFSILEANYPETLKNLIVIRAPKLFPVAFNLVKSFMSEETRRKIVILGDNWKQELTKFISPDQLPVEFGGTMTDPDGNPKCLTKINYGGEVPKSYYLCEQVRLQYEHTRSVGRGSSLQVENEILFPGCVLRWQFASDGGDIGFGVFLKTKMGEQQSAREMTEVLPSQRYNAHMVPEDGSLTCLQAGVYVLRFDNTYSRMHAKKLSYTVEVLLPDKASEETLQSLKAMRPSPTQ
pKapp_sign [1]: 5.194

B4: PYGB (protein, UniProt P11216 2-843, looked up)
Glycogen phosphorylase, brain …: AKPLTDSEKRKQISVRGLAGLGDVAEVRKSFNRHLHFTLVKDRNVATPRDYFFALAHTVRDHLVGRWIRTQQHYYERDPKRIYYLSLEFYMGRTLQNTMVNLGLQNACDEAIYQLGLDLEELEEIEEDAGLGNGGLGRLAACFLDSMATLGLAAYGYGIRYEFGIFNQKIVNGWQVEEADDWLRYGNPWEKARPEYMLPVHFYGRVEHTPDGVKWLDTQVVLAMPYDTPVPGYKNNTVNTMRLWSAKAPNDFKLQDFNVGDYIEAVLDRNLAENISRVLYPNDNFFEGKELRLKQEYFVVAATLQDIIRRFKSSKFGCRDPVRTCFETFPDKVAIQLNDTHPALSIPELMRILVDVEKVDWDKAWEITKKTCAYTNHTVLPEALERWPVSMFEKLLPRHLEIIYAINQRHLDHVAALFPGDVDRLRRMSVIEEGDCKRINMAHLCVIGSHAVNGVARIHSEIVKQSVFKDFYELEPEKFQNKTNGITPRRWLLLCNPGLADTIVEKIGEEFLTDLSQLKKLLPLVSDEVFIRDVAKVKQENKLKFSAFLEKEYKVKINPSSMFDVHVKRIHEYKRQLLNCLHVVTLYNRIKRDPAKAFVPRTVMIGGKAAPGYHMAKLIIKLVTSIGDVVNHDPVVGDRLKVIFLENYRVSLAEKVIPAADLSQQISTAGTEASGTGNMKFMLNGALTIGTMDGANVEMAEEAGAENLFIFGLRVEDVEALDRKGYNAREYYDHLPELKQAVDQISSGFFSPKEPDCFKDIVNMLMHHDRFKVFADYEAYMQCQAQVDQLYRNPKEWTKKVIRNIACSGKFSSDRTITEYAREIWGVEPSDLQIPPPNIPRD
pKapp_sign [1]: 4.228

B5: IVD (protein, UniProt P26440 33-426, looked up)
Isovaleryl-CoA dehydrogenase, …: HSLLPVDDAINGLSEEQRQLRQTMAKFLQEHLAPKAQEIDRSNEFKNLREFWKQLGNLGVLGITAPVQYGGSGLGYLEHVLVMEEISRASGAVGLSYGAHSNLCINQLVRNGNEAQKEKYLPKLISGEYIGALAMSEPNAGSDVVSMKLKAEKKGNHYILNGNKFWITNGPDADVLIVYAKTDLAAVPASRGITAFIVEKGMPGFSTSKKLDKLGMRGSNTCELIFEDCKIPAANILGHENKGVYVLMSGLDLERLVLAGGPLGLMQAVLDHTIPYLHVREAFGQKIGHFQLMQGKMADMYTRLMACRQYVYNVAKACDEGHCTAKDCAGVILYSAECATQVALDGIQCFGGNGYINDFPMGRFLRDAKLYEIGAGTSEVRRLVIGRAFNADFH
pKapp_sign [1]: 4.276

B6: NUP35 (protein, UniProt Q8NFH5 1-326, looked up)
Nucleoporin NUP35: MAAFAVEPQGPALGSEPMMLGSPTSPKPGVNAQFLPGFLMGDLPAPVTPQPRSISGPSVGVMEMRSPLLAGGSPPQPVVPAHKDKSGAPPVRSIYDDISSPGLGSTPLTSRRQPNISVMQSPLVGVTSTPGTGQSMFSPASIGQPRKTTLSPAQLDPFYTQGDSLTSEDHLDDSWVTVFGFPQASASYILLQFAQYGNILKHVMSNTGNWMHIRYQSKLQARKALSKDGRIFGESIMIGVKPCIDKSVMESSDRCALSSPSLAFTPPIKTLGTPTQPGSTPRISTMRPLATAYKASTSDYQVISDRQTPKKDESLVSKAMEYMFGW
pKapp_sign [1]: 4.141

B7: CAPN6 (protein, UniProt Q9Y6Q1 1-641, looked up)
Calpain-6: MGPPLKLFKNQKYQELKQECIKDSRLFCDPTFLPENDSLFYNRLLPGKVVWKRPQDICDDPHLIVGNISNHQLTQGRLGHKPMVSAFSCLAVQESHWTKTIPNHKEQEWDPQKTEKYAGIFHFRFWHFGEWTEVVIDDLLPTINGDLVFSFSTSMNEFWNALLEKAYAKLLGCYEALDGLTITDIIVDFTGTLAETVDMQKGRYTELVEEKYKLFGELYKTFTKGGLICCSIESPNQEEQEVETDWGLLKGHTYTMTDIRKIRLGERLVEVFSAEKVYMVRLRNPLGRQEWSGPWSEISEEWQQLTASDRKNLGLVMSDDGEFWMSLEDFCRNFHKLNVCRNVNNPIFGRKELESVLGCWTVDDDPLMNRSGGCYNNRDTFLQNPQYIFTVPEDGHKVIMSLQQKDLRTYRRMGRPDNYIIGFELFKVEMNRKFRLHHLYIQERAGTSTYIDTRTVFLSKYLKKGNYVLVPTMFQHGRTSEFLLRIFSEVPVQLRELTLDMPKMSCWNLARGYPKVVTQITVHSAEDLEKKYANETVNPYLVIKCGKEEVRSPVQKNTVHAIFDTQAIFYRRTTDIPIIVQVWNSRKFCDQFLGQVTLDADPSDCRDLKSLYLRKKGGPTAKVKQGHISFKVISSDDLTEL
pKapp_sign [1]: 5.695

B8: ABT1 (protein, UniProt Q9ULW3 1-272, looked up)
Activator of basal …: MEAEESEKAATEQEPLEGTEQTLDAEEEQEESEEAACGSKKRVVPGIVYLGHIPPRFRPLHVRNLLSAYGEVGRVFFQAEDRFVRRKKKAAAAAGGKKRSYTKDYTEGWVEFRDKRIAKRVAASLHNTPMGARRRSPFRYDLWNLKYLHRFTWSHLSEHLAFERQVRRQRLRAEVAQAKRETDFYLQSVERGQRFLAADGDPARPDGSWTFAQRPTEQELRARKAARPGGRERARLATAQDKARSNKGLLARIFGAPPPSESMEGPSLVRDS
AvgSpec (POLE2 WT; mean of 6 replicates): 7.33 | Spec (POLE2 WT; replicate 1): 9 | Spec (POLE2 WT; replicate 2): 11 | Spec (POLE2 WT; replicate 3): 13 | Spec (POLE2 WT; replicate 4): 4 | Spec (POLE2 WT; replicate 5): 2 | Spec (POLE2 WT; replicate 6): 5 | SpecSum (POLE2 WT; sum of 6 replicates): 44 | FoldChange (POLE2 WT; versus control counts): 6.05 | AvgSpec (POLE2 E520A; mean of 3 replicates): 9.33 | Spec (POLE2 E520A; replicate 1): 14 | Spec (POLE2 E520A; replicate 2): 7 | Spec (POLE2 E520A; replicate 3): 7 | SpecSum (POLE2 E520A; sum of 3 replicates): 28 | FoldChange (POLE2 E520A; versus control counts): 7.7 | AvgSpec (POLE2 Y311F; mean of 3 replicates): 9.67 | Spec (POLE2 Y311F; replicate 1): 11 | Spec (POLE2 Y311F; replicate 2): 8 | Spec (POLE2 Y311F; replicate 3): 10 | SpecSum (POLE2 Y311F; sum of 3 replicates): 29 | FoldChange (POLE2 Y311F; versus control counts): 7.97 | AvgSpec (POLE2 S522A; mean of 3 replicates): 14.33 | Spec (POLE2 S522A; replicate 1): 12 | Spec (POLE2 S522A; replicate 2): 14 | Spec (POLE2 S522A; replicate 3): 17 | SpecSum (POLE2 S522A; sum of 3 replicates): 43 | FoldChange (POLE2 S522A; versus control counts): 11.82

B9: ASPA (protein, UniProt P45381 1-313, looked up)
Aspartoacylase: MTSCHIAEEHIQKVAIFGGTHGNELTGVFLVKHWLENGAEIQRTGLEVKPFITNPRAVKKCTRYIDCDLNRIFDLENLGKKMSEDLPYEVRRAQEINHLFGPKDSEDSYDIIFDLHNTTSNMGCTLILEDSRNNFLIQMFHYIKTSLAPLPCYVYLIEHPSLKYATTRSIAKYPVGIEVGPQPQGVLRADILDQMRKMIKHALDFIHHFNEGKEFPPCAIEVYKIIEKVDYPRDENGEIAAIIHPNLQDQDWKPLHPGDPMFLTLDGKTIPLGGDCTVYPVFVNEAAYYEKKEAFAKTTKLTLNAKSIRCCLH
pKapp_sign [1]: 5.902
